Measurements from the supplement of paper PMC9732359.
± gives the uncertainty stated by the source.

Assay: protein stability index of a GFP-peptide fusion (yeast GPS) (PSI 1-4); higher = more stable; sorted into four equal gates, so the index is relative within each strain
Summary of the method: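 Plasmids in a pooled yeast library fused tiled 17-residue yeast protein peptides downstream of GFP and also expressed Cherry. Mid-log cultures grown without leucine were sorted into four equal gates by GFP/Cherry fluorescence ratio. Each gate's plasmids were PCR-amplified and Illumina-sequenced, and reads were matched to strains by barcodes. The protein stability index is derived by multiplying each gate's read frequency by its gate number and summing the results.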

| Sequence | protein stability index (doa10∆) | protein stability index (pdr5∆) | protein stability index (san1∆) | protein stability index (ubr1∆) |
| --- | --- | --- | --- | --- |
| VGVDQLSIELEGGKNQA [YJL039C/NUP192] | 3.08 ± 0.27 | 3.23 ± 0.16 | 3.06 ± 0.076 | 2.46 ± 0.14 |
| ASEVATHSKLFADKKRD [PRP8] | 2.51 ± 0.063 | 2.69 ± 0.073 | 2.31 ± 0.079 | 2.56 ± 0.068 |
| THFLLNIYDQLRNKLIE [RRP6] | 2.62 ± 0.044 | 2.69 ± 0.062 | 2.38 ± 0.051 | 2.8 ± 0.033 |
| KLDENNAQLSCITKQDG [PUP2] | 2.79 ± 0.12 | 3.13 ± 0.087 | 3.11 ± 0.098 | 3.06 ± 0.088 |
| PTKLLVSEVAKIMQEAT [PRE8] | 2.63 ± 0.067 | 2.58 ± 0.085 | 2.72 ± 0.11 | 2.73 ± 0.062 |
| SKLLQTTLKLSPSPILL [NUT1] | 2.4 ± 0.045 | 1.47 ± 0.051 | 1.72 ± 0.091 | 1.5 ± 0.046 |
| MVSTPELKKYMDKKILL [SMX2] | 3.25 ± 0.15 | 3.62 ± 0.12 | 3.26 ± 0.092 | 3 ± 0.074 |
| TPAPKISYKKGAASNRT [RPL36A] | 2.98 ± 0.072 | 3.22 ± 0.06 | 3.17 ± 0.058 | 3.1 ± 0.042 |
| DPRHIQLLGDVMTYKGE [RPO31] | 2.91 ± 0.07 | 3.17 ± 0.055 | 2.79 ± 0.063 | 3.06 ± 0.048 |
| LNELSAKDKEIYNKMIG [RPN13] | 2.8 ± 0.092 | 2.65 ± 0.11 | 2.2 ± 0.11 | 2.83 ± 0.082 |
| WTEKKGKNVINRERFIS [SMD2] | 2.54 ± 0.16 | 1.54 ± 0.066 | 1.11 ± 0.19 | 3.05 ± 0.087 |
| IDREGNARKVVGASVVV [RPS12] | 2.65 ± 0.18 | 2.75 ± 0.25 | – | 3.31 ± 0.22 |
| QLDSDANKLSKSHSTVS [ISW2] | 3.04 ± 0.063 | 2.85 ± 0.075 | 3 ± 0.13 | 3.06 ± 0.074 |
| KPPSSAFNFSFNTSRNV [YAR002W/NUP60] | 3.2 ± 0.042 | 3.18 ± 0.056 | 3.26 ± 0.045 | 3.05 ± 0.04 |
| RPLQKIMLLQLELGSCF [SIN4] | 1.41 ± 0.058 | 1.54 ± 0.065 | 1.79 ± 0.1 | 1.42 ± 0.061 |
| QWSATWIAMRREKRDRT [PRP8] | 2.23 ± 0.089 | 2.64 ± 0.081 | 2.76 ± 0.18 | 2.73 ± 0.095 |
| KLDTEVKNTNANPVVAT [SWP82] | 1.94 ± 0.069 | 2.38 ± 0.082 | 2.54 ± 0.08 | 1.86 ± 0.05 |
| PPSSFGRSHTRNSTRSS [REC8] | 3.04 ± 0.14 | 2.65 ± 0.17 | 3.14 ± 0.087 | 2.96 ± 0.17 |
| TKIKPFIKVVNYNHLLP [RPL27A] | 2.49 ± 0.072 | 2.35 ± 0.094 | 2.77 ± 0.093 | 2.64 ± 0.11 |
| NITFSEELVSLAVFLFD [YJL039C/NUP192] | – | – | 1.62 ± 0.28 | 1.66 ± 0.29 |
| NVNNRFDNFLTEEELQA [BRN1] | 3.07 ± 0.078 | 2.63 ± 0.079 | 3 ± 0.056 | 2.63 ± 0.054 |
| KIRCFRYISTLTLYLFQ [IRR1] | 1.69 ± 0.073 | 1.47 ± 0.077 | 1.64 ± 0.15 | 1.51 ± 0.14 |
| RSNKIKVVKTPGGILRA [RPL34A] | 2.64 ± 0.068 | 2.12 ± 0.047 | 2.49 ± 0.064 | 2.2 ± 0.041 |
| NENDKIYLLFQSSGKLK [YDL116W/NUP84] | 2.43 ± 0.049 | 2.5 ± 0.049 | 2.44 ± 0.048 | 2.72 ± 0.034 |
| KYLKKRKIGISIDDHPY [RPC31] | 1.41 ± 0.075 | 1.33 ± 0.081 | 1.77 ± 0.099 | 1.74 ± 0.051 |
| TQVFNILLQHKEKLTVQ [POP1] | 3.1 ± 0.084 | 3.11 ± 0.066 | 3.13 ± 0.058 | 2.94 ± 0.036 |
| NLGYCNDKLIVDNDNWV [RPN1] | 2.37 ± 0.1 | 2.79 ± 0.18 | 2.32 ± 0.2 | – |

| Sequence | protein stability index (doa10∆) | protein stability index (pdr5∆) | protein stability index (san1∆) | protein stability index (ubr1∆) |
| --- | --- | --- | --- | --- |
| RELTKNILWRIADKTTY [SIR4] | 3.02 ± 0.094 | 2.6 ± 0.065 | 2.68 ± 0.11 | 3.02 ± 0.05 |
| TTNLDIDLLTFQYGSRL [RPP1] | 3.29 ± 0.087 | 3.22 ± 0.073 | 3.06 ± 0.092 | 2.98 ± 0.055 |
| NKFHKSIREDILECDLL [SIR2] | 2.73 ± 0.058 | 2.91 ± 0.066 | 3 ± 0.049 | 3.08 ± 0.06 |
| NNTLSRYADAGNIDTKN [RRP43] | 3.35 ± 0.064 | 3.21 ± 0.058 | 3.28 ± 0.041 | 3.5 ± 0.054 |
| VENYETSSAFFYQQVHK [SIR4] | 2.75 ± 0.04 | 2.57 ± 0.042 | 2.43 ± 0.045 | 2.52 ± 0.03 |
| IYSSDAQGDPNLEPLIA [NUT1] | 3.36 ± 0.14 | 3.12 ± 0.096 | 3.04 ± 0.065 | 3.35 ± 0.1 |
| LKKKVVDPFTRKEWFDI [RPS1B] | 2.97 ± 0.075 | 3.18 ± 0.071 | 3.18 ± 0.045 | 2.88 ± 0.049 |
| QSNYGIYSSDAQGDPNL [NUT1] | 3.03 ± 0.077 | 2.92 ± 0.065 | 2.51 ± 0.056 | 3.06 ± 0.063 |
| LLVDKDANGVSLFELIV [YJL039C/NUP192] | 3.02 ± 0.051 | 3.05 ± 0.055 | 3.07 ± 0.049 | 3.25 ± 0.037 |
| PFKGEVVDGTVVSCSQH [RPB7] | 3.04 ± 0.14 | 3.08 ± 0.1 | 2.92 ± 0.088 | 2.56 ± 0.12 |
| LCDNFNHFSLSYKDSGL [COR1] | 2.27 ± 0.066 | 2.7 ± 0.069 | 2.73 ± 0.067 | 2.5 ± 0.066 |
| VTSMEAAREKKIRELEA [YIL149C/MLP2] | 2.97 ± 0.072 | 2.9 ± 0.1 | 2.92 ± 0.07 | 2.86 ± 0.063 |
| ILHVRAQYCYKNGLYQE [SRP72] | 2.86 ± 0.073 | 2.94 ± 0.095 | 3.1 ± 0.068 | 3.25 ± 0.057 |
| RMKQYLKTKLLEEVEGS [RPB7] | 3.09 ± 0.13 | 3.09 ± 0.1 | 3.11 ± 0.088 | 3.24 ± 0.13 |
| KQLIMESQEKYMEPFDL [NSL1] | 3.29 ± 0.072 | 3.31 ± 0.054 | 3.32 ± 0.047 | 3.28 ± 0.039 |
| PKKYKENNTDSARKELE [SMC1] | 2.96 ± 0.059 | 2.8 ± 0.065 | 3.09 ± 0.046 | 3.31 ± 0.057 |
| LSTSVGWKYEDVVAKLE [RPL16A] | 3.44 ± 0.11 | 3.29 ± 0.21 | 3.5 ± 0.14 | 3.53 ± 0.19 |
| EEKEKEQSKEVGDVVGG [BRN1] | 3.29 ± 0.091 | 3.52 ± 0.1 | 3.29 ± 0.067 | 3.34 ± 0.075 |
| FSRHAQQQTSTFNSKPV [SIR4] | 2.38 ± 0.056 | 2.82 ± 0.058 | 2.07 ± 0.076 | 2.38 ± 0.047 |
| HDISKTETSNEDEDEDD [SNU114] | 3.02 ± 0.058 | 3.03 ± 0.057 | 2.98 ± 0.039 | 3.08 ± 0.037 |
| YATKDGVAHLLNRFNFQ [QCR2] | 2.45 ± 0.088 | 2.67 ± 0.053 | 1.87 ± 0.29 | 2.6 ± 0.057 |
| ALFLSKINRPPVSVSRI [RPL18A] | 2.29 ± 0.14 | 1.63 ± 0.076 | 1.6 ± 0.14 | 2.16 ± 0.16 |
| SINATALAFGYVKSLHK [SIN4] | 3.51 ± 0.21 | 2.92 ± 0.12 | 3.1 ± 0.22 | 3.08 ± 0.08 |
| STAIKSLVALGIDPQDL [CDC53] | 2.29 ± 0.077 | 2.67 ± 0.066 | 2.81 ± 0.053 | 2.45 ± 0.049 |
| LIKKAVSVRKHLERNRK [RPS13] | 3.43 ± 0.26 | 3.32 ± 0.11 | – | 3.28 ± 0.1 |
| ALYRVNDLRDMILNYNP [UBP6] | 2.81 ± 0.12 | 2.73 ± 0.19 | 2.81 ± 0.17 | 2.99 ± 0.12 |
